Values quoted from earlier work as cited in PMC8910669.

Biological target: SARS-CoV-2 spike RBD RBD (Severe acute respiratory syndrome coronavirus 2) (UniProt P0DTC2)

hBD-2 (from UniProt O15263)
Kd: 300 nM
